In patent US7727960B2, “C5a receptor antagonists” (Jerini AG, priority 2003, dated 2010):
Starred links: 1 amine or outer side, 2 acyl side, 3 side chain; linkers in the order of their positions; H or OH if unused. Positions of bridges follow the written chain, without caps; N, C: chain ends. Non-standard residues stand in square brackets, D forms with d. No end group written: not given here. Ecp = His(tau-4-methoxybenzyl), COc1ccc(Cn2cnc(C[C@H](N[*:1])C(=O)[*:2])c2)cc1; Edn = Cys(CH2-CH2-4-pyridyl), O=C([C@H](CSCCc1ccncc1)N[*:1])[*:2]; Ebo = Cys(4-picolyl), O=C([C@H](CSCc1ccncc1)N[*:1])[*:2]; Ebu = Cys(3-picolyl), O=C([C@H](CSCc1cccnc1)N[*:1])[*:2]; Ecg = Cys(2-picolyl), O=C([C@H](CSCc1ccccn1)N[*:1])[*:2]; Phe(4-tBu) = CC(C)(C)c1ccc(C[C@H](N)C(=O)O)cc1; XX1 = 2-Amino-3-(4-piperidinyl)propionic acid; Ebd = Cys(Et), CCSC[C@H](N[*:1])C(=O)[*:2]; Phe(4-Me) = Cc1ccc(C[C@H](N)C(=O)O)cc1; 1Nal = N[C@@H](Cc1cccc2ccccc12)C(=O)O; 2Nal = N[C@@H](Cc1ccc2ccccc2c1)C(=O)O; XX2 = 4-guanidyl-piperidinyl-alanine; d(hLeu) = CC(C)CC[C@@H](N)C(=O)O; hCit = NC(=O)NCCCC[C@H](N)C(=O)O; 4Pal = N[C@@H](Cc1ccncc1)C(=O)O; 2Thi = N[C@@H](Cc1cccs1)C(=O)O; Cha = N[C@@H](CC1CCCCC1)C(=O)O; dCha = N[C@H](CC1CCCCC1)C(=O)O; dChg = N[C@@H](C(=O)O)C1CCCCC1; Phg = N[C@H](C(=O)O)c1ccccc1; hLeu = CC(C)CC[C@H](N)C(=O)O; Eag = 2-Propargylglycine; Nle = CCCC[C@H](N)C(=O)O; Orn = NCCC[C@H](N)C(=O)O; Dab = NCC[C@H](N)C(=O)O; Ecf = Cys(O-3-picolyl)

Molecular target: T1, human C5aR (CD88) (human, UniProt P21730 1-350)
T1 sequence (looked up): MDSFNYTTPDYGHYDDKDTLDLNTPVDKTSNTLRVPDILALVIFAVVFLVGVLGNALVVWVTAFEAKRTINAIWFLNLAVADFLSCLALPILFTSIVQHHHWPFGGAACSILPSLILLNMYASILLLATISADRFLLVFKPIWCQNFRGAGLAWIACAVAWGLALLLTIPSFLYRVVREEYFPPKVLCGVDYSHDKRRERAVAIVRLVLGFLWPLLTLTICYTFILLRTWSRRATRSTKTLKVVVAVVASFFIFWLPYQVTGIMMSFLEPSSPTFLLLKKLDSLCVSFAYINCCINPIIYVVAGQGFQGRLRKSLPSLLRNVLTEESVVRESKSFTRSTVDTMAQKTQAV
Test: cell-based or functional assay

B1: Ac-Phe-[Orn-Pro-cha-Trp-Ebo] (peptide)
peptide: Ac-F[Orn]P[dCha]W[Ebo]
modifications: lactam (positions not given here); not fully specified (bridges); printed as Ac-Phe-[Orn-Pro-cha-Trp-Ebo]
- IC50 activity group, enzyme release assay: ≤ 2000 nM

B2: Ac-Phe-[Orn-Pro-cha-Trp-Ebd] (peptide)
peptide: Ac-F[Orn]P[dCha]W[Ebd]
modifications: lactam (positions not given here); not fully specified (bridges); printed as Ac-Phe-[Orn-Pro-cha-Trp-Ebd]
- IC50 activity group, enzyme release assay: ≤ 50 nM

B3: Ac-Phe-[Orn-Pro-cha-Trp-Hle] (peptide)
peptide: Ac-F[Orn]P[dCha]W[hLeu]
modifications: lactam (positions not given here); not fully specified (bridges); printed as Ac-Phe-[Orn-Pro-cha-Trp-Hle]
- IC50 activity group, enzyme release assay: ≤ 50 nM

Binder: H-F[Orn]P[dCha]W[Nle] (lactam 2-C) [H-Phe-[Orn-Pro-cha-Trp-Nle]]
- IC50 activity group, enzyme release assay: ≤ 200 nM

Binder: H-F[Orn]P[d(hLeu)]W[Nle] (lactam 2-C) [H-Phe-[Orn-Pro-hle-Trp-Nle]]
- IC50 activity group, enzyme release assay: ≤ 50 nM

Binder: Ac-F[Orn]P[dHch]WF-OH [Ac-Phe-Orn-Pro-hch-Trp-Phe-OH, listing 1 of 2 here]
- IC50 activity group, enzyme release assay: ≤ 200 nM

Binder: {Ph2‑CH‑CH2‑CO}-[Orn]P[dCha]WF-NH2 [Ph2-CH-CH2-CO-Orn-Pro-cha-Trp-Phe-NH2]
- IC50 activity group, enzyme release assay: ≤ 2000 nM

Binder: Ac-F[Orn]P[dHch]WF-OH [Ac-Phe-Orn-Pro-hch-Trp-Phe-OH, listing 2 of 2 here]
- IC50 activity group, enzyme release assay: ≤ 200 nM

B4: Ac-Phe-[Orn-Pro-cha-Trp-Edn] (peptide)
peptide: Ac-F[Orn]P[dCha]W[Edn]
modifications: lactam (positions not given here); not fully specified (bridges); printed as Ac-Phe-[Orn-Pro-cha-Trp-Edn]
- IC50 activity group, enzyme release assay: ≤ 2000 nM

Binder: Ac-F[Orn]P[dCha]W[1Nal]-NH2 [Ac-Phe-Orn-Pro-cha-Trp-1Ni-NH2]
- IC50 activity group, enzyme release assay: ≤ 50 nM

B5: H-Phe-[Orn-Ser-cha-Trp-Phe] (peptide)
peptide: H-F[Orn]S[dCha]WF
modifications: lactam 2-C
SMILES: N[C@@H](Cc1ccccc1)C(=O)N[C@H]1CCCNC(=O)[C@H](Cc2ccccc2)NC(=O)[C@H](Cc2c[nH]c3ccccc23)NC(=O)[C@@H](CC2CCCCC2)NC(=O)[C@H](CO)NC1=O
- IC50 activity group, enzyme release assay: ≤ 50 nM

Binder: Ac-F[Orn]P[dCha]W[Phe(4-tBu)]-NH2 [Ac-Phe-Orn-Pro-cha-Trp-Eap-NH2]
- IC50 activity group, enzyme release assay: ≤ 2000 nM

Binder: Ac-F[Orn]P[dCha]W[2Nal]-NH2 [Ac-Phe-Orn-Pro-cha-Trp-2Ni-NH2]
- IC50 activity group, enzyme release assay: ≤ 50 nM

B6: Ac-Phe-[Orn-Pro-cha-Trp-XX1] (peptide)
peptide: Ac-F[Orn]P[dCha]W[XX1]
modifications: lactam (positions not given here); not fully specified (bridges); printed as Ac-Phe-[Orn-Pro-cha-Trp-XX1]
- IC50 activity group, enzyme release assay: > 2000 nM

B7: Ac-Phe-[Orn-Pro-cha-Trp-Ecg] (peptide)
peptide: Ac-F[Orn]P[dCha]W[Ecg]
modifications: lactam (positions not given here); not fully specified (bridges); printed as Ac-Phe-[Orn-Pro-cha-Trp-Ecg]
- IC50 activity group, enzyme release assay: ≤ 2000 nM

B8: Ac-Phe-Orn-Ser-cha-Trp-Phe-OH (peptide)
peptide: Ac-F[Orn]S[dCha]WF-OH
SMILES: CC(=O)N[C@@H](Cc1ccccc1)C(=O)N[C@@H](CCCN)C(=O)N[C@@H](CO)C(=O)N[C@H](CC1CCCCC1)C(=O)N[C@@H](Cc1c[nH]c2ccccc12)C(=O)N[C@@H](Cc1ccccc1)C(=O)O
- IC50 activity group, enzyme release assay: ≤ 2000 nM

Binder: FXPXWR (not fully specified; Ac-; Orn2; cha4 (D); Arg(Me2)6; cyclic [2-6]) [Ac-Phe-[Orn-Pro-cha-Trp-Arg(Me2)]]
- IC50 activity group, enzyme release assay: ≤ 200 nM

B9: Ac-Phe-[Orn-Pro-cha-Trp-Eag] (peptide)
peptide: Ac-F[Orn]P[dCha]W[Eag]
modifications: lactam (positions not given here); not fully specified (bridges); printed as Ac-Phe-[Orn-Pro-cha-Trp-Eag]
- IC50 activity group, enzyme release assay: ≤ 10 nM

B10: Ac-Phe-[Orn-Pro-cha-Trp-Dab] (peptide)
peptide: Ac-F[Orn]P[dCha]W[Dab]
modifications: lactam (positions not given here); not fully specified (bridges); printed as Ac-Phe-[Orn-Pro-cha-Trp-Dab]
- IC50 activity group, enzyme release assay: ≤ 200 nM

Binder: Ac-F[Orn]P[dCha]W[Cha]-NH2 [Ac-Phe-Orn-Pro-cha-Trp-Cha-NH2]
- IC50 activity group, enzyme release assay: ≤ 200 nM

Binder: Ac-F[Orn]P[dCha]W[2Thi]-NH2 [Ac-Phe-Orn-Pro-cha-Trp-Thi-NH2]
- IC50 activity group, enzyme release assay: ≤ 200 nM

B11: Ac-Phe-[Orn-Pro-cha-Trp-Hci] (peptide)
peptide: Ac-F[Orn]P[dCha]W[hCit]
modifications: lactam (positions not given here); not fully specified (bridges); printed as Ac-Phe-[Orn-Pro-cha-Trp-Hci]
- IC50 activity group, enzyme release assay: ≤ 2000 nM

B12: Ac-Phe-[Orn-Pro-cha-Trp-Thi] (peptide)
peptide: Ac-F[Orn]P[dCha]W[2Thi]
modifications: lactam (positions not given here); not fully specified (bridges); printed as Ac-Phe-[Orn-Pro-cha-Trp-Thi]
- IC50 activity group, enzyme release assay: ≤ 50 nM

B13: Ac-Phe-[Orn-Pro-cha-Trp-Ppa] (peptide)
peptide: Ac-F[Orn]P[dCha]W[4Pal]
modifications: lactam (positions not given here); not fully specified (bridges); printed as Ac-Phe-[Orn-Pro-cha-Trp-Ppa]
- IC50 activity group, enzyme release assay: ≤ 200 nM

B14: Ac-Phe-[Orn-Pro-cha-Trp-Ecp] (peptide)
peptide: Ac-F[Orn]P[dCha]W[Ecp]
modifications: lactam (positions not given here); not fully specified (bridges); printed as Ac-Phe-[Orn-Pro-cha-Trp-Ecp]
- IC50 activity group, enzyme release assay: ≤ 2000 nM

Binder: Ac-F[Orn]P[dCha]W[Phg]-NH2 [Ac-Phe-Orn-Pro-cha-Trp-Phg-NH2]
- IC50 activity group, enzyme release assay: ≤ 2000 nM

B15: Ac-Phe-[Orn-Pro-cha-Trp-2Ni] (peptide)
peptide: Ac-F[Orn]P[dCha]W[2Nal]
modifications: lactam (positions not given here); not fully specified (bridges); printed as Ac-Phe-[Orn-Pro-cha-Trp-2Ni]
- IC50 activity group, enzyme release assay: ≤ 200 nM

B16: Ac-Phe-[Orn-Pro-cha-Trp-Phe(4-Amidin)] (peptide)
peptide: Ac-F[Orn]P[dCha]W[Phe(4-Amidin)]
modifications: lactam (positions not given here); not fully specified (bridges); printed as Ac-Phe-[Orn-Pro-cha-Trp-Phe(4-Amidin)]
- IC50 activity group, enzyme release assay: ≤ 2000 nM

B17: Ac-Phe-[Orn-Pro-cha-Trp-Pmf] (peptide)
peptide: Ac-F[Orn]P[dCha]W[Phe(4-Me)]
modifications: lactam (positions not given here); not fully specified (bridges); printed as Ac-Phe-[Orn-Pro-cha-Trp-Pmf]
- IC50 activity group, enzyme release assay: ≤ 50 nM

B18: Ac-Phe-[Orn-Pro-cha-Trp-Ebu] (peptide)
peptide: Ac-F[Orn]P[dCha]W[Ebu]
modifications: lactam (positions not given here); not fully specified (bridges); printed as Ac-Phe-[Orn-Pro-cha-Trp-Ebu]
- IC50 activity group, enzyme release assay: ≤ 2000 nM

B19: Ac-Phe-[Orn-Pro-cha-Trp-Ecf] (peptide)
peptide: Ac-F[Orn]P[dCha]W[Ecf]
modifications: lactam (positions not given here); not fully specified (bridges); printed as Ac-Phe-[Orn-Pro-cha-Trp-Ecf]
- IC50 activity group, enzyme release assay: ≤ 2000 nM

B20: Ac-Phe-[Orn-Pro-cha-Trp-Met] (peptide)
peptide: Ac-F[Orn]P[dCha]WM
modifications: lactam (positions not given here); not fully specified (bridges); printed as Ac-Phe-[Orn-Pro-cha-Trp-Met]
- IC50 activity group, enzyme release assay: ≤ 200 nM

Binder: Ac-F[Orn]P[dChg]WF-OH [Ac-Phe-Orn-Pro-chg-Trp-Phe-OH]
- IC50 activity group, enzyme release assay: ≤ 2000 nM

Binder: Ac-F[Orn]P[dCha]W-{NH‑CH2‑CH2‑Ph} [Ac-Phe-Orn-Pro-cha-Trp-NH-CH2-CH2-Ph]
- IC50 activity group, enzyme release assay: ≤ 2000 nM

B21: Ac-Phe-[Orn-Pro-cha-Trp-XX2] (peptide)
peptide: Ac-F[Orn]P[dCha]W[XX2]
modifications: lactam (positions not given here); not fully specified (bridges); printed as Ac-Phe-[Orn-Pro-cha-Trp-XX2]
- IC50 activity group, enzyme release assay: > 2000 nM
